This is an account of results in patent US20100196266A1.

Experiment [1] concerns the target human leukocyte antigen-DR (HLA-DR) on human lymphoma and leukemia cell lines and human lymphocytes (human). As to the kind of experiment: indirect flow cytometry, Namalwa cells, FITC-GAM; none 2.91; control antibody. For orientation: A flow cytometer gives signals particle by particle.
In experiment [2] the target is antigen recognised by L243 on canine lymphocytes and canine lymphoma cells (HLA-DR of the dog) (dog). As to the kind of experiment: flow cytometry, dog lymphoma aspirate; none 3.24.
The target is the same in experiment [3]. As to the kind of experiment: flow cytometry, dog lymphoma aspirate; none 4.48.
For experiment [4] the target is unchanged. As to the kind of experiment: flow cytometry, canine lymphoma aspirate 150836; none 3.2.
Experiment [5] shares this target. As to the kind of experiment: flow cytometry, canine lymphoma aspirate 150836; none 4.5.
The target is the same in experiment [6]. As to the kind of experiment: flow cytometry, dog lymphoma aspirate; none 3.37.
The target is the same in experiment [7]. As to the kind of experiment: flow cytometry, dog lymphoma aspirate; none 3.85.
Experiment [8] has the same target. As to the kind of experiment: flow cytometry, canine lymphoma aspirate 150836; none 3.4.
Experiment [9] shares this target. As to the kind of experiment: flow cytometry, canine lymphoma aspirate 150836; none 3.9.
Experiment [10] concerns the target human leukocyte antigen-DR (HLA-DR) on human lymphoma and leukemia cell lines and human lymphocytes (human). As to the kind of experiment: indirect FACS, FITC-GAH Fc, Raji cells; none 6.8; control antibody.
For experiment [11], the target named is antigen recognised by L243 on canine lymphocytes and canine lymphoma cells (HLA-DR of the dog) (dog). As to the kind of experiment: flow cytometry, dog lymphoma aspirate; none 3.24; control antibody.
Experiment [12] shares this target. As to the kind of experiment: flow cytometry, dog lymphoma aspirate; none 4.48; control antibody.
In experiment [13] the target is human leukocyte antigen-DR (HLA-DR) on human lymphoma and leukemia cell lines and human lymphocytes (human). As to the kind of experiment: indirect FACS, FITC-GAH Fc, Daudi cells; none 3.1; control antibody.
Experiment [14] shares this target. As to the kind of experiment: indirect FACS, FITC-GAH Fc, Ramos cells; none 3.1; control antibody.
For experiment [15] the target is unchanged. As to the kind of experiment: indirect FACS, FITC-GAH Fc, Namalwa cells; none 2.5; control antibody.
Experiment [16] has the same target. As to the kind of experiment: indirect FACS, FITC-GAH Fc, SU-DHL-6 cells; none 4.6; control antibody.
The target is the same in experiment [17]. As to the kind of experiment: indirect FACS, FITC-GAH Fc, WSU-FSCCL cells; none 2.6; control antibody.
The target is the same in experiment [18]. As to the kind of experiment: indirect flow cytometry, FITC-GAH Fc, RL cells; none 2.4; negative control.
Experiment [19] has as its target antigen recognised by L243 on canine lymphocytes and canine lymphoma cells (HLA-DR of the dog) (dog). As to the kind of experiment: flow cytometry, canine lymphoma aspirate 150836; none 3.2; control antibody.
Experiment [20] shares this target. As to the kind of experiment: flow cytometry, canine lymphoma aspirate 150836; none 4.5; control antibody.
The target of experiment [21] is human leukocyte antigen-DR (HLA-DR) on human lymphoma and leukemia cell lines and human lymphocytes (human). As to the kind of experiment: indirect flow cytometry, FITC-GAH Fc, Raji cells; none 6.9; negative control.
For experiment [22] the target is unchanged. As to the kind of experiment: indirect flow cytometry, Namalwa cells, FITC-GAH; none 2.52; control antibody.
For experiment [23] the target is unchanged. As to the kind of experiment: indirect flow cytometry, FITC-GAH Fc, Daudi cells; none 3.2; negative control.
The target is the same in experiment [24]. As to the kind of experiment: indirect flow cytometry, FITC-GAH Fc, Ramos cells; none 3.1; negative control.
For experiment [25] the target is unchanged. As to the kind of experiment: indirect flow cytometry, FITC-GAH Fc, Namalwa cells; none 2.6; negative control.
Experiment [26] shares this target. As to the kind of experiment: indirect flow cytometry, FITC-GAH Fc, SU-DHL-6 cells; none 4.6; negative control.
For experiment [27] the target is unchanged. As to the kind of experiment: indirect flow cytometry, FITC-GAH Fc, WSU-FSCCL cells; none 2.7; negative control.

B1: murine MN-14 (anti-carcinoembryonic antigen) (antibody, from a related filing, V domains shown)
VH: EVKLLESGGGLVQSGGSLKLSCAASGFDFTTYWMSWVRQAPGKGLEWIGEIHPDSSTINYAPSLKDKFIVSRDNAKNTLYLQMSKVRSEDTALYYCASLYFGFPWFAYWGQGTPVTVSA
VL: EIQLTQSHKMMSTSVGDRVSITCKASQDVGTSVAWYQQRPGQSPKLLIYWTSTRHTGVPDRFTGSVSGTDFTLTITNVQSEDLADYFCQQYSLYRSFGGGTKLEIK
For B1, in experiment [1], the GEO MEAN Fluorescence amounted to 3.32.

B2: hL243γ4P (humanized L243, IgG4/K isotype with hinge mutation Ser241Pro) (antibody, V domains shown)
VH: QVQLQQSGSELKKPGASVKVSCKASGFTFTNYGMNWVKQAPGQGLKWMGWINTYTREPTYADDFKGRFAFSLDTSVSTAYLQISSLKADDTAVYFCARDITAVVPTGFDYWGQGSLVTVSS
VL: DIQLTQSPSSLSASVGDRVTITCRASENIYSNLAWYRQKPGKAPKLLVFAASNLADGVPSRFSGSGSGTDYTFTISSLQPEDIATYYCQHFWTTPWAFGGGTKLQIKR
Turning to B2, the mean FL turned out to be 5.47 in experiment [2] and 5.5 in [4]. Also, the values for the % Positive in experiment [3] and in [5] were 26.3% and 26.2%, respectively.

B3: murine monoclonal antibody L243 (mL243) (antibody, V domains shown)
VH: QIQLVQSGPELKKPGETVKISCKASGFTFTNYGMNWVKQAPGKGLKWMGWINTYTREPTYADDFKGRFAFSLETSASTAYLQINNLKNEDTAKYFCARDITAVVPTGFDYWGQGTTLTVSS
VL: DIQMTQSPASLSVSVGETVTITCRASENIYSNLAWYRQKQGKSPQLLVFAASNLADGVPSRFSGSGSGTQYSLKINSLQSEDFGDYYCQHFWTTPWAFGGGTNLEIKR
With B3, the mean FL in [6] and in experiment [8] was 10.4 throughout. Besides, the % Positive in [7] and in experiment [9] was 77.8% each time.

B4: hMN-14, labetuzumab (humanized anti-carcinoembryonic antigen IgG1) (antibody, INN chains, looked up, V domains shown)
VH: EVQLVESGGGVVQPGRSLRLSCSASGFDFTTYWMSWVRQAPGKGLEWIGEIHPDSSTINYAPSLKDRFTISRDNAKNTLFLQMDSLRPEDTGVYFCASLYFGFPWFAYWGQGTPVTVSS
VL: DIQLTQSPSSLSASVGDRVTITCKASQDVGTSVAWYQQKPGKAPKLLIYWTSTRHTGVPSRFSGSGSGTDFTFTISSLQPEDIATYYCQQYSLYRSFGQGTKVEIKR
As for B4, the Geometric Mean Fluorescence in experiment [10] was determined as 6.96; in [13] it was 3.16; in [14] it was 3.13; in experiment [15], 2.36; in experiment [16], 4.94; in [17] it was 2.66. The Geometric Mean Fluorescence in experiment [18] worked out at 2.8; in experiment [21], 7; in [23] it was 3.2; in experiment [24], 3.1; in [25] it was 2.4; in experiment [26], 4.9. This molecule had a Geometric Mean Fluorescence in [27] of 2.7. Besides, the values for the mean FL in experiment [11] and in [19] were 3.24 and 3.2, respectively. The % Positive in [12] was 4.63%; in experiment [20], 4.6%. Besides, the GEO MEAN Fluorescence in experiment [22] was 2.49.
